Measurements reported in article PMC5428420, “The trimer interface in the quaternary structure of the bifunctional prokaryotic FAD synthetase from Corynebacterium ammoniagenes” (Scientific Reports, 2017).
Where two headings read alike, the source gives them in different places.

Key:
CaFADS [1] = target: T1, CaFADS (Corynebacterium ammoniagenes, UniProt Q59263); set-up: made in house; host or cells: E. coli BL21(DE3); conditions: ITC, ref [16], [21], cited from earlier work
CaFADS RFK activity = conditions: 25 °C
Method: The CaFADS RFK activity was measured at 25 °C in 500 µl of 20 mM PIPES, 0.8 mM MgCl2, pH 7.0, containing 0.5–45 µM RF and 10–500 µM ATP. Reactions were initiated by addition of ~20 nM of the monomeric enzyme. After 1 min incubation at 25 °C, the reactions were stopped by boiling the mixtures for 5 min. The flavin composition in the supernatant was determined using an Alliance HPLC system (Waters), equipped with a 2707 autosampler and an HSST3 column (4.6 × 150 mm, 3.5 µm, Waters), preceded by a precolumn (4.6 × 20 mm, 3.5 µm, Waters). Flavins (FMN or FAD) produced from RF were quantified using their corresponding standard curves, as previously described[21].
When an excess of RF inhibited the RFK activity, the experimental data were interpreted through a model describing the substrate inhibition of a bi-substrate mechanism[26]. In these situations, the errors in apparent K m and k cat (^app K m and ^app k cat) increased as the inhibition constant (K i) approached K m ^S. Experiments were performed in triplicate.

CaFADS [2] = target: T1, CaFADS; set-up: made in house; host or cells: E. coli BL21(DE3); conditions: ITC, ref [16], [21], cited from earlier work; remark: listed apart in the source
CaFADS FMNAT activity = CaFADS FMNAT activity (Corynebacterium ammoniagenes, UniProt Q59263); assay: Steady-state kinetics of the FMNAT activity (FMN → FAD), continuous fluorometric assay; type: biochemical; conditions: 25 °C, 20 mM PIPES pH 7.0, 10 mM MgCl2
Method: The CaFADS FMNAT activity was fluorometrically measured using a continuous assay. […] A Cary Eclipse spectrophotofluorometer with excitation and emission wavelengths of 420 nm and 530 nm, respectively, was used. FAD and FMN fluorescence were individually calibrated using standard solutions and the data were analyzed as previously described.

CaFADS:ADP:Mg^2+ complex = target: T2, CaFADS:ADP:Mg^2+ complex (Corynebacterium ammoniagenes, UniProt Q59263); conditions: FMN binding to preformed CaFADS:ADP:Mg2+ complex; ITC, 25 °C, pH 7.0, 10 mM MgCl2; ref [16], [21]; read-out: K d FADS:ADP:FMN, RFK site; cited from earlier work
T2 construct: made in house; host or cells: E. coli BL21(DE3)

CaFADS [3] = target: T1, CaFADS; conditions: ITC; in brackets; ref [16], [21]; cited from earlier work
CaFADS [4] = target: T1, CaFADS; set-up: made in house; host or cells: E. coli BL21(DE3); conditions: ITC, ref [16], [21], cited from earlier work; remark: listed apart in the source
[5] = RF concentration giving ~80% of maximal activity, pH 7.0, 0.8 mM MgCl2

B1: WT: wild-type bifunctional FAD synthetase from Corynebacterium ammoniagenes (CaFADS) (protein)
chain: MDIWYGTAAVPKDLDNSAVTIGVFDGVHRGHQKLINATVEKAREVGAKAIMVTFDPHPVSVFLPRRAPLGITTLAERFALAESFGIDGVLVIDFTRELSGTSPEKYVEFLLEDTLHASHVVVGANFTFGENAAGTADSLRQICQSRLTVDVIDLLDDEGVRISSTTVREFLSEGDVARANWALGRHFYVTGPVVRGAGRGGKELGFPTANQYFHDTVALPADGVYAGWLTILPTEAPVSGNMEPEVAYAAAISVGTNPTFGDEQRSVESFVLDRDADLYGHDVKVEFVDHVRAMEKFDSVEQLLEVMAKDVQKTRTLLAQDVQAHKMAPETYFLQAES
In the case of B1, the Kd (CaFADS [1]; 25 °C, pH 7.0, 10 mM MgCl2, average K d,av of two sites, read-out: K d FADS:ATP) is given as 30.2 µM, the “stoichiometry FADS:ATP” value (CaFADS [1]; in brackets) is given as 2 and the “K m ATP RFK activity” value (CaFADS RFK activity; [5]) is given as 28.2 ± 3.9 µM. The “k cat RFK activity as function of ATP” value (CaFADS RFK activity; [5]) was 2.58 ± 0.083 s⁻¹, the “k cat/K m ATP RFK activity” value (CaFADS RFK activity; [5]) was 91700 ± 13000 M⁻¹ s⁻¹ and the “k cat (apparent) RFK activity” value (CaFADS RFK activity; saturating ATP, apparent constant (RF substrate inhibition), 20 mM PIPES pH 7.0, 0.8 mM MgCl2) was 6.8 ± 3.83 s⁻¹. For the same molecule, the “K m RF (apparent) RFK activity” value (CaFADS RFK activity; saturating ATP, apparent constant, 20 mM PIPES pH 7.0, 0.8 mM MgCl2) was 11.7 ± 3.0 µM, the “k cat/K m RF RFK activity” value (CaFADS RFK activity; saturating ATP, apparent, pH 7.0, 0.8 mM MgCl2) was 582000 ± 360000 M⁻¹ s⁻¹ and the Kd (CaFADS [2]; 25 °C, pH 7.0, 10 mM MgCl2, read-out: K d FADS:FMN) was 7.8 µM. For the same molecule, the “stoichiometry FADS:FMN” value (CaFADS [2]; in brackets) was 1, the “K m ATP FMNAT activity” value (CaFADS FMNAT activity) was 22.4 ± 2.0 µM and the “K m FMN FMNAT activity” value (CaFADS FMNAT activity) was 10.1 ± 1.0 µM. For the same molecule, the “k cat FMNAT activity” value (CaFADS FMNAT activity) was 0.0917 ± 0.0083 s⁻¹, the “k cat/K m ATP FMNAT activity” value (CaFADS FMNAT activity) was 4170 ± 500 M⁻¹ s⁻¹ and the “k cat/K m FMN FMNAT activity” value (CaFADS FMNAT activity) was 9000 ± 1200 M⁻¹ s⁻¹. The Kd (CaFADS:ADP:Mg^2+ complex) was 0.9 ± 0.1 µM, the “stoichiometry FADS:RF” value (CaFADS [3]) was 2 and the Kd (CaFADS [4]; 25 °C, pH 7.0, 10 mM MgCl2, read-out: K d FADS:FAD) was 0.74 µM. The “stoichiometry FADS:FAD” value (CaFADS [4]; in brackets) was 1.
